In article PMC12501251 (Communications Biology, 2025):

Legend:
Experiment in all cases: ELISA
[1] = target: N3 NA (head domain plus stalk region) from A/swine/Missouri/2124514/2006 (H2N3) (Influenza A virus …, UniProt A9YN63, strain)
[2] = target: N8 NA (head domain plus stalk region) from A/gyrfalcon/41088-6/2014 (H5N8) (Influenza A virus …, UniProt A0A0C4WVM3, strain)
[3] = target: N1 NA head domain (residue 82-469) from A/Brevig Mission/1/1918 (H1N1) (Influenza A virus A/Brevig …, UniProt Q9IGQ6)
[4] = target: T1, N2 NA head domain from A/Japan/305/1957 (H2N2) (Influenza A virus A/Japan/305/1957 …, strain)
T1 chain: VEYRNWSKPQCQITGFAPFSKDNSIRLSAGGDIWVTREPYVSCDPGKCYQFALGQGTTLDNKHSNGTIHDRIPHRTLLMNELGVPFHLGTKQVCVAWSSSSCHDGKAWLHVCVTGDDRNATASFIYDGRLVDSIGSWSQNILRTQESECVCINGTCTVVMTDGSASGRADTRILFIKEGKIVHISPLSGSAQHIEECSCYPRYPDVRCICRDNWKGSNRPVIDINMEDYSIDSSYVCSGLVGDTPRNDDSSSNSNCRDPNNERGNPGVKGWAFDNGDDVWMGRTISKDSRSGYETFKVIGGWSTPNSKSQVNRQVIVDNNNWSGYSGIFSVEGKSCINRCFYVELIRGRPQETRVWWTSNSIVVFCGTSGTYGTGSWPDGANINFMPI

Measured: binding result

Sequence of N1 NA head domain (residue 82-469) from A/Brevig Mission/1/1918 (H1N1) (Q9IGQ6 82-469): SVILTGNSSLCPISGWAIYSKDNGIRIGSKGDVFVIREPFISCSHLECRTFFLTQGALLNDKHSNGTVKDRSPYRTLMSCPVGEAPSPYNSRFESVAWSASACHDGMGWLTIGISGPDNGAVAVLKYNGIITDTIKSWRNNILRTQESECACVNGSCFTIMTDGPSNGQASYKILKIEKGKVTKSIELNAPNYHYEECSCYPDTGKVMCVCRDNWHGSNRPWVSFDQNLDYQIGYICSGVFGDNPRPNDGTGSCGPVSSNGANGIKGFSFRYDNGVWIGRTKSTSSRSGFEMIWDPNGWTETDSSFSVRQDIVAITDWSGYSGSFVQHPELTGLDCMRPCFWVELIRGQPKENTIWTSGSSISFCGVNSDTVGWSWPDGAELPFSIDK

B1: 1122A11 (human IgG1 mAb) (antibody, V domains shown)
VH: QVQLVQSGAEVSKPGASVKVSCKASGYSFTSQSLGWVRQAPGQGLEWMGIINPSGGITNYAHKFQGRVTMTRDTSTSTVYMELSSLRSEDTALYYCVRDLSHYNEVGHDRAYYYGMDIWGQGTTVTVSS
VL: SYELIQPPSVSVSPGQTASITCSGDKLGKKYTCWYQQKPGQSPVLVIYQDNKRPSGIPERFSGSNSGNTATLTISGTQAMDEADYYCQAWDSSAVVFGGGTKLTVL
binds: all assays above
